Tests used:
Ig2 domain = molecular target: T1, Ig2 domain (mouse, UniProt Q8R2Y2); experiment: ForteBio Octet Red, anti-human IgG Fc (AHC) biosensors loaded with mouse MCAM-hFc proteins (5 ug/ml), dipped into antibody (5 ug/ml) or SP2 media
T1 construct: isolated domain 2; also called Murine MCAM domain 2 (Ig2) with human IgG Fc tag
T1 sequence (Fc fusion chain, looked up): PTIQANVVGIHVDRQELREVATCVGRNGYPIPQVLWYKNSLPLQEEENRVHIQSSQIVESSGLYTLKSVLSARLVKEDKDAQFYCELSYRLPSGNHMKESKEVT
From the text: (§1) The following protocol was used: ForteBio Domain Mapping Protocol. ForteBio anti-human IgG Fc biosensors were used to immobilize various mouse MCAMhFc domains including full length mouse MCAMhFc protein on to biosensor surface. These sensors were dipped into either clone 15 or 17 MCAM specific antibody for detection of binding to these domains or full length protein. After loading these samples into a black 96 well plate, the Octet Red was programmed as follows: 60 seconds for baseline #1; 180 seconds for loading various domains; 60 seconds for baseline #2; 180 seconds for association of antibody to domain; and 240 seconds for dissociation of antibody from domain.
(§2) 1. Mouse MCAMhFc final concentration @ 5 ug/ml [0466] 2. Antibody clone 15 or 17 @ 5 ug/ml [0467] 3. ForteBio anti-human IgG Fc Capture (AHC) biosensors for kinetics experiments, cat#18-5060 [0468] 4. […] 5. ForteBio Octet Red machine [0470] 6. Fresh tissue culture medium, DMEM with 20% FCS, was used as buffer for dilution
(§3) For FIGS. 10A-B, clones 15 and 17 were tested against the following protein samples (all have human IgG Fc tag): Murine MCAM; Human Fc full length protein; Murine MCAM domain 1 (Ig1); Murine MCAM domain 2 (Ig2); and Murine MCAM domain 1 and 2 (Ig1-2A).

[1] = molecular target: T2, murine MCAM-Fc fusion protein (mouse, UniProt Q8R2Y2 24-563); experiment: as above
T2 construct: extracellular domain; produced in CHO cells; also called mouse MCAM-Fc; mouse MCAMhFc; not shown: fused to human IgG
T2 sequence (looked up): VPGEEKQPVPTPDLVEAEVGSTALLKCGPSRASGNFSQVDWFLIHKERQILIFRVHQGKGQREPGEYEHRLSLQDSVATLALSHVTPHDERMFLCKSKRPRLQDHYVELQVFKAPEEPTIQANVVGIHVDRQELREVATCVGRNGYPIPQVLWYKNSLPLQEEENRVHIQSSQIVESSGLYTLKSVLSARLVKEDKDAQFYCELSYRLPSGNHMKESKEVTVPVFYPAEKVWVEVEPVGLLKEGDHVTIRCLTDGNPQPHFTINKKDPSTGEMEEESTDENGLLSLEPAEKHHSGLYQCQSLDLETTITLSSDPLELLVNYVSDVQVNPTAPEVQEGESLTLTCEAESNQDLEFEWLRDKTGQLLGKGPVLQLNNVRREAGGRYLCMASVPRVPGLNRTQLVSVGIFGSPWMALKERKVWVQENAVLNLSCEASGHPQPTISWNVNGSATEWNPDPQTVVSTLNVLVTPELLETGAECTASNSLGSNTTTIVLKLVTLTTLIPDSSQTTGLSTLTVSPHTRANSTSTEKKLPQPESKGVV
From the text: as §1, §2, §3

[2] = molecular target: T3, mouse MCAM expressed on transfected CHO cells (mouse, UniProt Q8R2Y2 24-648); experiment: flow cytometry, mouse MCAM transfected cells mixed with CFSE-labelled untransfected cells
T3 construct: whole, on cells; also called murine MCAM
T3 sequence (looked up): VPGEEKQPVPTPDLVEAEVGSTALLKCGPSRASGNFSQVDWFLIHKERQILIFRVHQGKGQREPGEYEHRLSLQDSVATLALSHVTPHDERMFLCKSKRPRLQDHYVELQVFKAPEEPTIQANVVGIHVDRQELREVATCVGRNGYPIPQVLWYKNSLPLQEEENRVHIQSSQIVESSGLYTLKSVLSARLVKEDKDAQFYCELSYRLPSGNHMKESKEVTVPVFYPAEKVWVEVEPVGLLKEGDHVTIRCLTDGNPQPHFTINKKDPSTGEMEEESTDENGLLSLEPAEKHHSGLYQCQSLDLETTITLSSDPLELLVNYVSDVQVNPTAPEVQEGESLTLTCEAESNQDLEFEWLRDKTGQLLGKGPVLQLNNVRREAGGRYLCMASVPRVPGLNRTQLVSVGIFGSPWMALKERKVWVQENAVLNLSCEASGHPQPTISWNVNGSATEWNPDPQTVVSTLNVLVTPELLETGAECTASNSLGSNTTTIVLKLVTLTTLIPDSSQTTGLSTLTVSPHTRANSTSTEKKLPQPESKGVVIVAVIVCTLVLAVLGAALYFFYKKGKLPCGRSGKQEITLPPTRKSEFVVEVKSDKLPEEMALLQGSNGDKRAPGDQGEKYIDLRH
Description: For the generation of antibodies capable of binding to murine MCAM, MCAM-Fc was generated by fusing the extracellular domain of murine MCAM to human IgG and produced in CHO cells using standard techniques. Lou/M rats were immunized with 100 μg of MCAM-Fc protein in CFA (1:1 volume). Rats were boosted two times at two week intervals with MCAM-Fc protein in incomplete Freund's adjuvant (IFA) (1:1 volume). Hybridomas were generated from immunized rats using standard protocols and clones were selected by Clonepix. CHO cells were transfected with the full length murine MCAM gene and selected for stable expression using neomycin and standard techniques. Parental CHO cells (MCAM negative) were fluorescently labeled with carboxyfluorescein succinimidyl ester (CFSE) using standard techniques and mixed at a 1:1 ratio with unlabeled MCAM transfected CHO cells. Hybridoma supernatants were incubated with this mixture of cells for 30 minutes and binding of potential MCAM specific antibodies was detected with a fluorescently labeled anti-rat secondary antibody (Jackson Immuno) by flow cytometry.

recombinant hMCAM-His [3] = molecular target: T4, recombinant hMCAM-His (human, UniProt P43121 24-559); experiment: ForteBio Octet Red, hMCAM-His analyte; Forte column 2; vs rodent 2120
T4 construct: not shown: His tag
T4 chain: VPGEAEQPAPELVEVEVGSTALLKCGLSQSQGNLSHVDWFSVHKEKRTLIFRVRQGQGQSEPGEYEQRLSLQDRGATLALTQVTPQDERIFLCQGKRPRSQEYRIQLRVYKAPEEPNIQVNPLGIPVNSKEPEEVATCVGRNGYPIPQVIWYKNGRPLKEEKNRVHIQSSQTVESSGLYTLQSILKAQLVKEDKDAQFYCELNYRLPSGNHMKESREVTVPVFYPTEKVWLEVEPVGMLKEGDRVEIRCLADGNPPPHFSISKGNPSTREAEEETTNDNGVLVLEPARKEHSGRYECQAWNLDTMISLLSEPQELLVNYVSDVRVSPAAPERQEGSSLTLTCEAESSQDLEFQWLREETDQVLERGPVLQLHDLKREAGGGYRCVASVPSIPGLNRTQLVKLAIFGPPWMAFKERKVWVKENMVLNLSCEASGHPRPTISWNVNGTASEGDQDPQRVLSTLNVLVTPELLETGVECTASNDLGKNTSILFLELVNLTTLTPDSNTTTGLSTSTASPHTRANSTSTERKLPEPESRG
Description: (§4) The affinities were measured using the ForteBio Octet Red. Anti-human Fc sensors were used to capture the humanized antibodies, and several concentrations of hMCAMHis analyte were used to determine the affinity using a 1:1 fitting model.

[4] = molecular target: T5, human MCAM (melanoma cell adhesion molecule) expressed on transfected CHO cells (human, UniProt P43121 24-646); experiment: laminin/FACS on hMCAM CHO cells, competitor laminin 411; Expt#1; vs rodent 2120
T5 construct: also called hMCAM; CD146
T5 chain: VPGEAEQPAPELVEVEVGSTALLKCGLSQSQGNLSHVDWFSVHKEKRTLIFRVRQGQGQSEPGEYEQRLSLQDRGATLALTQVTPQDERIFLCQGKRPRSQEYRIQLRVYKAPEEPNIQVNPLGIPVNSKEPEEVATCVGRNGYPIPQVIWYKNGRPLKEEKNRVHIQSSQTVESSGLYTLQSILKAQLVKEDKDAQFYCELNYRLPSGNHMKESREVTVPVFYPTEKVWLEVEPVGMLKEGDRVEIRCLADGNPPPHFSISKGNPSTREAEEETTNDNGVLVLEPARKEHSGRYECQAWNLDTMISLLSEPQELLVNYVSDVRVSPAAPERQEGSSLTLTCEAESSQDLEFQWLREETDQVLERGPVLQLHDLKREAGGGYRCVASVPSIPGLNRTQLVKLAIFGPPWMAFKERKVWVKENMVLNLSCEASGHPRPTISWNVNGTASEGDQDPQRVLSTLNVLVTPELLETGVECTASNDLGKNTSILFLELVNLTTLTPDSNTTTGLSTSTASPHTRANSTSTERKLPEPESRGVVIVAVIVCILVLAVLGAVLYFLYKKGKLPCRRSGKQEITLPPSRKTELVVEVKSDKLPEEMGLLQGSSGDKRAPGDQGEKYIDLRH
Description: (§5) Following incubation for 30-45 minutes, the cells were washed and anti-laminin conjugated to AF650 (NovusBio) was added to detect the bound laminin. The cells were run on a flow cytometer to measure the laminin binding signal.

recombinant hMCAM-His [5] = molecular target: T4, recombinant hMCAM-His; experiment: ForteBio Octet Red, hMCAM-His analyte; Expt. #1; vs rodent 2120
Description: as §4

recombinant hMCAM-His [6] = molecular target: T4, recombinant hMCAM-His; experiment: competitive ELISA on hMCAM-His, competitor biotinylated rodent or chimeric 2120; Expt. #2; vs rodent 2120
Description: (§6) ELISA plates were coated with recombinant hMCAM-His, and blocked with casein buffer to prevent non-specific binding. Biotinylated rodent or chimeric antibody was added at a subsaturating concentration, in the presence or absence of 3× increasing concentrations of unlabeled competitor (humanized antibody, rodent, or chimeric). After washing to remove unbound antibody, streptavidin HRP was added to allow detection of the biotinylated antibody. The ELISA was developed with TMB substrate and the OD450 was measured. The IC50 of the unlabeled competitor was determined using the GraphPad Prism5 software.

recombinant hMCAM-His [7] = molecular target: T4, recombinant hMCAM-His; experiment: ForteBio Octet Red, hMCAM-His analyte; Expt. #2; vs rodent 2120
Description: as §4

recombinant hMCAM-His [8] = molecular target: T4, recombinant hMCAM-His; experiment: competitive ELISA on hMCAM-His, competitor biotinylated rodent or chimeric 2120; vs rodent 2120
Description: as §6

recombinant hMCAM-His [9] = molecular target: T4, recombinant hMCAM-His; experiment: competitive ELISA on hMCAM-His, competitor biotinylated rodent or chimeric 2120; Expt. #1; vs rodent 2120
Description: as §6

recombinant hMCAM-His [10] = molecular target: T4, recombinant hMCAM-His; experiment: summary of ForteBio, hMCAM-His; vs rodent 2120
Description: as §4

recombinant hMCAM-His [11] = molecular target: T4, recombinant hMCAM-His; experiment: ForteBio Octet Red, hMCAM-His analyte; Forte column 1; vs rodent 2120
Description: as §4

[12] = molecular target: T5, human MCAM (melanoma cell adhesion …); experiment: laminin/FACS on hMCAM CHO cells, competitor laminin 411; Expt#2; vs rodent 2120
Description: as §5

B1: anti-MCAM monoclonal antibody clone 17 (antibody, V domains shown)
VH: EVQLVESGGGLVQPGRSLKLSCAASGFTFSNYYMAWVRQAPTKGLEWVASISFEGNRNHYGDSVKGRITISRDNAKSTLYLQMTSLRPEDTATYYCARHRGYSTNFYHDVLDAWGQGALVTVSS
VL: DVQMTQSPSYLATSPGESVSISCKASKNIDTYLAWYQEKPGKTNKLLIYSGSTLQSGTPSRFSGSGSGTDFTLTIRNLESEDFAVYYCQQHNEYPLTFGSGTKLEIKR
notes: rat monoclonal raised against murine MCAM-Fc; also called anti-MCAM clone 17
binding result (Ig2 domain): no binding (tested: 5 ug/ml)
binding result [1]: binds
binding result [2]: binds

B2: h2120_VH1 + h2120_VL3 (antibody, human IgG1, V domains shown)
VH: QVTLKESGPVLVKPTETLTLTCTVSGFSLTSNGVSWVRQPPGKALEWIAAISSGGTTYYNSAFKSRLTISRDTSKSQVVLTMTNMDPVDTATYYCARRYGYGWYFDFWGQGTLVTVSS
VL: DIQMTQSPSSLSASVGDRVTINCKASQNIYNSLAWYQQKPGKAPKVLIFNANSLQTGIPSRFSGSGSGTDFTLTISSLQPEDFATYYCQQFYSGYTFGQGTKLEIK
fold over rodent (Forte affinity) (recombinant hMCAM-His [3]): 5.8 fold
fold over rodent (blocking, laminin/FACS) [4]: 1.7 fold
fold over rodent (Forte affinity) (recombinant hMCAM-His [5]): 5.64 fold
fold over rodent (competitive ELISA) (recombinant hMCAM-His [6]): 2.42 fold
fold over rodent (Forte affinity) (recombinant hMCAM-His [7]): 6.21 fold
fold over rodent (competitive ELISA) (recombinant hMCAM-His [8]): 1.8 fold
fold over rodent (competitive ELISA) (recombinant hMCAM-His [9]): 2.23 fold
fold reduction in affinity as measured by ForteBio (recombinant hMCAM-His [10]): > 5 fold
fold over rodent (Forte affinity) (recombinant hMCAM-His [11]): 5.9 fold
fold over rodent (blocking, laminin/FACS) [12]: 2.8 fold

B3: h2120_VH2 + h2120_VL3 (antibody, human IgG1, V domains shown)
VH: QVTLKESGPVLVKPTETLTLTCTVSGFSLTSNGVSWVRQPPGKALEWIAAISSGGTTYYNSAFKSRLSISRDTSKSQVVLTMTNMDPVDTATYYCARRYGYGWYFDFWGQGTLVTVSS
VL: DIQMTQSPSSLSASVGDRVTINCKASQNIYNSLAWYQQKPGKAPKVLIFNANSLQTGIPSRFSGSGSGTDFTLTISSLQPEDFATYYCQQFYSGYTFGQGTKLEIK
fold over rodent (Forte affinity) (recombinant hMCAM-His [5]): 6.57 fold
fold over rodent (competitive ELISA) (recombinant hMCAM-His [6]): 2.62 fold
fold over rodent (Forte affinity) (recombinant hMCAM-His [7]): 6.43 fold
fold over rodent (competitive ELISA) (recombinant hMCAM-His [9]): 1.93 fold
fold reduction in affinity as measured by ForteBio (recombinant hMCAM-His [10]): > 5 fold

Reference: patent US20150239980A1 (NEOTOPE BOSCIENCES, published 2015)
